Results reported in paper PMC5737841.
Changes are numbered by the printed parent chain.

Legend:
Test in all cases: UV crosslinking
SisCsx1-M2 = target: T1, SisCsx1-M2 (Sulfolobus islandicus Rey15A, UniProt F0NE21 1-454, G95L;A97L;A99L)
T1 sequence: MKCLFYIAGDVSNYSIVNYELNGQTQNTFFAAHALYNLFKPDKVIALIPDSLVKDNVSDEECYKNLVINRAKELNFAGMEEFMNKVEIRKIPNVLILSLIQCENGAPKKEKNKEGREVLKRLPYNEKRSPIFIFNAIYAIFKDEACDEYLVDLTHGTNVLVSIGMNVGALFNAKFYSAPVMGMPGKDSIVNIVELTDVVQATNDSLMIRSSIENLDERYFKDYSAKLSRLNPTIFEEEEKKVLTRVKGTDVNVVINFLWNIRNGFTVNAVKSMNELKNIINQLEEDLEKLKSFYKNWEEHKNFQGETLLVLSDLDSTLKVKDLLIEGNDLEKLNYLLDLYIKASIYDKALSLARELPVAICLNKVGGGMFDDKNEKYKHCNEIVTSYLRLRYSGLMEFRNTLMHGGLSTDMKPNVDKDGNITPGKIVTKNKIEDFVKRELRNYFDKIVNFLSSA

SisCsx1-M6 = target: T2, SisCsx1-M6 (Sulfolobus islandicus Rey15A, UniProt F0NE21 1-454, H155L)
T2 sequence: T1 sequence with L95G, L97A, L99A, H155L

SisCsx1-M3 = target: T3, SisCsx1-M3 (Sulfolobus islandicus Rey15A, UniProt F0NE21 1-454, D50L;S51L)
T3 sequence: T1 sequence with D50L, S51L, L95G, L97A, L99A

Measured: binding result

B1: S3A7 (ssRNA)
RNA: CGCAAAAAAA
no binding: SisCsx1-M2 | SisCsx1-M6 | SisCsx1-M3
